Source: patent US20040009905A1 (B M R A CORPORATION B V, published 2004)

Target: T1, NPY Y1 receptor (human, UniProt P25929 1-384)
T1 construct: whole, on cells; SK-N-MC cells are said to express the NPY Y1 receptor exclusively; also called SK-N-MC cells
T1 sequence (looked up): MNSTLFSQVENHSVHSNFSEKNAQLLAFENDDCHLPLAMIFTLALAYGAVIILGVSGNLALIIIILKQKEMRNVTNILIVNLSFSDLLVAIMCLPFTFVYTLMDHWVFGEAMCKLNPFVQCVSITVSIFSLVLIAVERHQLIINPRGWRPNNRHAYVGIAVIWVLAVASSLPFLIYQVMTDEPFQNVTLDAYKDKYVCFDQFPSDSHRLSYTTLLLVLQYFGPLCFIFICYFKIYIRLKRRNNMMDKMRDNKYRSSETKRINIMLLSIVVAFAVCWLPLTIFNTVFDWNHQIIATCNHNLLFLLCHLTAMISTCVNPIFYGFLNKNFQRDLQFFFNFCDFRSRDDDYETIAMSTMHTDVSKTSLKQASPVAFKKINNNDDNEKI
Test: 125I-NPY displacement on SK-N-MC cells
Experimental: Various peptide dilutions were incubated with SK-N-MC cells that exclusively express Y1 receptors. Cells were then washed three times with buffer and lysed in 1% Nonidet P40 (Fluka, Neu-Ulm, Germany), 8M urea, 3M acetic acid. […] At the end of the incubation period, cells were washed and lysed. Bound radioactivity was determined by gamma counting. […] Each point represents the mean ± of at least 4 experiments.

B1: Neuropeptide Y (NPY) (peptide)
peptide: not shown
modifications: C-terminal tyrosine amidated
notes: also called native NPY; Human NPY 1-36
Q: Does B1 bind?
A: binds
